# According to patent US20060002932A1, “Methods and compositions for enhancement of immunity by in vivo depletion of immunosuppressive cell activity” (priority 2004, published 2006):
# Entries after “also recorded” stand apart in the source; their conditions may differ.
# Assay: Clinical toxicity in cancer patients
# Assay type: in vivo, human
# Protocol: All subjects received a total of three intradermal injections of total tumor RNA-transfected DC. The injections were given intradermally at biweekly intervals and consisted of 1×10^7 cells suspended in 200 μL 0.9% sodium chloride (Abbott Laboratories, Abbott Park, Ill.) at each vaccination cycle. Following treatment, subjects were evaluated for toxicity, immunological and clinical response to therapy. Follow-up visits occurred biweekly for three visits, monthly for one visit, then every 3 months or until the subject was removed from the study.
# Having shown that regulatory T cell elimination is capable of enhancing T-cell responses in vitro, a clinical study was initiated to analyze the efficacy of this strategy to a) eliminate regulatory T cells and b) to enhance a vaccine-induced T-cell response in end-stage cancer patients. Seven patients with metastatic renal cell (RCC), and one subject with disseminated ovarian carcinoma (OVA) were treated in an institutional review board (IRB) and Food and Drug Administration (FDA)-approved pilot study. […] PBMCs were also obtained from a subject who received DAB389IL-2 only under separate informed consent.
# Treatment of patients was performed following written informed consent as part of an Institutional Review Board- and Federal Drug Administration-approved protocol. Patients with histologically-confirmed metastatic RCC were eligible for this study. One patient with disseminated ovarian carcinoma was included and treated on a compassionate basis. All patients were required to have adequate hepatic, renal, and neurological function, a life expectancy of >6 months, and a Karnofsky performance status of >70%. Patients must have had recovered from all toxicities related to any prior therapy and have not received any chemotherapy, radiation therapy, or immunotherapy for at least 6 weeks prior to study entry. Excluded from the study were patients with CNS metastases, with a history of autoimmune disease, with serious intercurrent chronic or acute illnesses. Patients on immunosuppressive agents were also excluded. […] All subjects received 3 intradermal injections of tumor RNA-transfected DC. The injections were given intradermally at biweekly intervals and consisted of 1×10^7 cells suspended in 200 μL 0.9% sodium chloride at each vaccination. Following treatment, subjects were evaluated for clinical toxicity, immunological and clinical responses. Due to regulatory restrictions and, in some subjects, limited access to tumor tissue, no tumor biopsies were performed.
# Having shown that Treg elimination is capable of enhancing T-cell responses in vitro, a clinical study was initiated to test the Treg depletion concept in a human vaccination setting. Eleven patients including 10 with metastatic RCC and one with disseminated ovarian carcinoma (OVA) were treated in an Institutional Review Board (IRB) and Food and Drug Administration (FDA)-approved study.
substance,measurement,setting,value
denileukin diftitox [DAB389IL-2],reduction in absolute neutrophil counts (ANC),"average, 5 of 6 evaluable subjects",10%
same,decrease in absolute neutrophil counts (ANC),one subject,20%
same,ALT elevations,single i.v. dose 18 μg/kg,"transient, grade II ALT elevations in one subject; also recorded: transient grade II serum alanine aminotransferase (ALT) elevations (n=1)"
same,constitutional symptoms,single i.v. dose 18 μg/kg,Grade I constitutional symptoms in two subjects; also recorded: grade I constitutional symptoms such as low-grade fever and malaise (n=4)
same,serum rheumatoid factor,single i.v. dose 18 μg/kg,grade I elevation of serum rheumatoid factor (n=1)
